Laboratory results: paper PMC6412888, “Improving the Performance of Horseradish Peroxidase by Site-Directed Mutagenesis” (International Journal of Molecular Sciences, 2019)

B1: Benchmark rHRP (HRP variant C1A) (Armoracia rusticana) (protein)
chain: QLTPTFYDNSCPNVSNIVRDTIVNELRSDPRIAASILRLHFHDCFVNGCDASILLDNTTSFRTEKDAFGNANSARGFPVIDRMKAAVESACPRTVSCADLLTIAAQQSVTLAGGPSWRVPLGRRDSLQAFLDLANANLPAPFFTLPQLKDSFRNVGLNRSSDLVALSGGHTFGKNQCRFIMDRLYNFSNTGLPDPTLNTTYLQTLRGLCPLNGNLSALVDFDLRTPTIFDNKYYVNLEEQKGLIQSDQELFSSPNATDTIPLVRSFANSTQTFFNAFVEAMDRMGNITPLTGTQGQIRLNCRVVNSNS
notes: mature HRP C1A without plant leader; E. coli BL21(DE3) periplasm, non-glycosylated, IMAC purified; hemin and CaCl2 added

Experiments:
[1] = system: T1, CCn1c(=NN=c2sc3cc(S(=O)(=O)O)ccc3n2CC)sc2cc(S(=O)(=O)O)ccc21; test: purified protein; assay type: biochemical, Armoracia rusticana
T1 construct: mature HRP C1A without plant leader; E. coli BL21(DE3) periplasm, non-glycosylated, IMAC purified; hemin and CaCl2 added

purified protein = substrate: CCn1c(=NN=c2sc3cc(S(=O)(=O)O)ccc3n2CC)sc2cc(S(=O)(=O)O)ccc21; test: purified protein; assay type: biochemical, Armoracia rusticana; details: 1 mM H2O2, 50 mM KH2PO4 pH 5, 30 °C
[2] = 1 mM H2O2, 50 mM KH2PO4 pH 5, 30 °C
[3] = 1 mM H2O2, 50 mM BisTris/HCl pH 7, 7% glycerol, 100 mM NaCl, 30 °C

| Molecule | Km [1, 3] [mM] | Vmax [1, 3] [µM/min] | kcat [1, 3] [s⁻¹] | kcat/Km [1, 3] [M⁻¹ s⁻¹] | other results |
| --- | --- | --- | --- | --- | --- |
| Benchmark rHRP (HRP variant C1A) (Armoracia rusticana; N285D/N298D/N43D/N87S) | – | – | – | – | Km [1, 2]: 0.45 ± 0.12 mM; Vmax [1, 2]: 1080 µM/min; kcat [1, 2]: 17.4 ± 1.01 s⁻¹; kcat/Km [1, 2]: 39100 ± 10500 M⁻¹ s⁻¹ |
| Benchmark rHRP (HRP variant C1A) (Armoracia rusticana; N285D/N298D/N87S) | 9.52 ± 6.89 | 240 | 4.81 ± 2.37 | 510 ± 440 | – |
| Benchmark rHRP (HRP variant C1A) (Armoracia rusticana; N43D) | 3.29 ± 0.33 | 52.8 | 1.04 ± 0.05 | 320 ± 40 | – |
| Benchmark rHRP (HRP variant C1A) (Armoracia rusticana; N87S) | 3.22 ± 0.59 | 162 | 2.1 ± 0.19 | 640 ± 130 | – |
| Benchmark rHRP (HRP variant C1A) (Armoracia rusticana; N298D/N87S) | 4.18 ± 3.55 | 60 | 1.5 ± 0.58 | 360 ± 340 | – |
| Benchmark rHRP (HRP variant C1A) (Armoracia rusticana; N298D) | 7.85 ± 4.98 | 144 | 3 ± 1.25 | 380 ± 290 | – |
| Benchmark rHRP (HRP variant C1A) (Armoracia rusticana; N285D) | 4.37 ± 0.86 | 53.4 | 1.1 ± 0.12 | 240 ± 50 | – |
| B1 | – | – | – | – | Km (purified protein): 0.44 ± 0.10 mM; Vmax (purified protein): 120 µM/min; kcat (purified protein): 2.24 ± 0.11 s⁻¹; kcat/Km (purified protein): 5070 ± 1160 M⁻¹ s⁻¹ |
